Results on one molecule are retold here after PMC10897178, “FANCJ DNA helicase is recruited to the replisome by AND-1 to ensure genome stability” (EMBO Reports, 2024).

One assay deals with T1, Flag-tagged FANCJ D736H (human, UniProt Q9BX63 1-1249, D736H).
T1 construct: FANCJ (BRIP1), human, full-length; missense variant found in invasive breast carcinoma; source: HEK 293T, transiently transfected, purified (anti-Flag M2 agarose)
T1 sequence (looked up): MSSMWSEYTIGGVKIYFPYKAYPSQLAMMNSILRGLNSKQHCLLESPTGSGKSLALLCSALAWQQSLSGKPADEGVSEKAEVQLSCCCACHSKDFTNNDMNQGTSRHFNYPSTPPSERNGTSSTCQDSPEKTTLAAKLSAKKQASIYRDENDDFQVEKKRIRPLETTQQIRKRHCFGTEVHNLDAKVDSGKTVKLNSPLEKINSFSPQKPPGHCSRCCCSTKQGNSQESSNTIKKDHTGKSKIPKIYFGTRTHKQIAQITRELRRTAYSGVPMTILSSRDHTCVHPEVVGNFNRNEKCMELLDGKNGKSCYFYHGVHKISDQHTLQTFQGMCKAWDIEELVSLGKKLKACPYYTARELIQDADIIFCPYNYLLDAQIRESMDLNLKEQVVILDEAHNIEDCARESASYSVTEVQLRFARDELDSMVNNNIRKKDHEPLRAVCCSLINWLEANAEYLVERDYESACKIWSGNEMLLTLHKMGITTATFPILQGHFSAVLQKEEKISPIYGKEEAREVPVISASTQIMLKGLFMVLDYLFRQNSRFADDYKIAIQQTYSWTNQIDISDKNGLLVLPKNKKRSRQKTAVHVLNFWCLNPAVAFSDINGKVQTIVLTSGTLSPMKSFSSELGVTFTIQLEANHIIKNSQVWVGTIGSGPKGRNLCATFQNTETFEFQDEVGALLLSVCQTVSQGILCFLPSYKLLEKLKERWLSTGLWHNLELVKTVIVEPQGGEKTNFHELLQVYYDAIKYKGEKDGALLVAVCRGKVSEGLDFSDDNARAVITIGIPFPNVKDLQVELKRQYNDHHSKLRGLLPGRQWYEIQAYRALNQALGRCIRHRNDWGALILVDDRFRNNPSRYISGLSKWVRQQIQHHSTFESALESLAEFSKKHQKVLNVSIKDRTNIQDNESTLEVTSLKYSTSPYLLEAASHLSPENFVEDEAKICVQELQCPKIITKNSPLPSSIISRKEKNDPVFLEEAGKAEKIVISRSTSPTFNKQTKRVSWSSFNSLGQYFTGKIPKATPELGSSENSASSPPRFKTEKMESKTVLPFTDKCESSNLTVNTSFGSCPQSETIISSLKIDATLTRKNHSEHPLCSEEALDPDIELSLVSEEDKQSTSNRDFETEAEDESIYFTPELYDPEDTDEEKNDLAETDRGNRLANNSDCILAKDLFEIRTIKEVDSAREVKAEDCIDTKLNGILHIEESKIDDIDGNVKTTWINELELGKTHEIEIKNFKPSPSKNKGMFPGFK
The assay can be described thus: pull-down; GST-SepB α-helix bundle (0.5 µg) on Glutathione Sepharose 4B beads, purified Flag-FANCJ (0.5 µg) added; 25 mM Tris-HCl pH 7.5, 150 mM NaCl, 0.1% Triton X-100, 4 °C; washes with 300 mM NaCl, 1% Triton X-100; Western blot. As to conditions: both partners purified.

In the next assay the target is T2, Flag-tagged FANCJ N734H (human, UniProt Q9BX63 1-1249, N734H).
T2 construct: FANCJ (BRIP1), human, full-length; missense variant found in uterine endometrial carcinoma; source: HEK 293T, transiently transfected, purified (anti-Flag M2 agarose)
T2 sequence (looked up): T1 sequence (looked up) with N734H, H736D
The description is as above. As to conditions: both partners purified.

Where a chain is given by its changes, count along the chain named.

B1: GST-SepB α-helix bundle WT (domain or fragment, human, UniProt O75717 718-824, looked up)
chain: IATEKGQMEEQFWRSVIFHNHLDYLAKNGYEYEESTKNQATKEQQELLMKMLALSCKLEREFRCVELADLMTQNAVNLAIKYASRSRKLILAQKLSELAVEKAAELT
notes: AND-1 (WDHD1), human, α-helix bundle of the SepB domain, amino-acid residues 718-824; Cloned into pGEX-2T; also called GST-SepB α-helix bundle chimeric protein; source: E. coli Rosetta pLysS (DE3), purified (Glutathione Sepharose 4B)
With B1, the binding result with Flag-tagged FANCJ D736H and with Flag-tagged FANCJ N734H was “binds” throughout.
